{
  "source": "patent US10995119B2",
  "about": "“Peptide exhibiting hydrolytic activity and use thereof” (Okinawa Institute of Science and Technology School …, priority 2016, dated 2021)",
  "key": {"Aβ11-29": {"molecular_target": "Aβ11-29 (Homo sapiens, UniProt P05067)", "assay": "Hydrolysis activity against Aβ11-29", "method": "(§1) Further, any change in activity caused by addition of human serum albumin (HSA, Wako Pure Chemical Industries, Ltd., final concentration 0.025%) also was measured.\n(§2) As substrates, Aβ42 in the form of soluble powder (authentic sample, Peptide Institute Inc.) and fragment peptides thereof, namely, Aβ1-20, Aβ11-29, and soluble Aβ28-42, were used. […] In the case of MS analysis, the MS analysis was performed after applying 20 μl of the reaction solution to HPLC and collecting an aliquot of the peak.\nAs a substrate, Aβ11-29, which is a fragment peptide of Aβ42, was used. […] In the case of MS analysis, the MS analysis was performed after applying 20 μl of the reaction solution after the reaction for 6 days to HPLC and collecting an aliquot of the peak.\n(§3) The present experiment examined activity against Aβ-Fs in Example 7.\nThe reaction solution V shown in FIG. 52 was incubated at 37° C. for a predetermined time, and autodigestion of ANA-YA4 (YRMI) and cleavage of Aβ11-29 were examined.\nA reaction solution VI shown in FIG. 52 was incubated at 37° C. for a predetermined time, and cleavage of Aβ1-20 and Aβ11-29 by ANA-SA5 was examined.\n(§4) As substrates, the same Aβ1-20 and Aβ11-29 as used in Example 7 were used.\nThe present example examined autodigestion and activity against Aβ-F of JAL 12-17 (YKGSGF) and JAL 12-16 (YKGSG). […] As a substrate, the same Aβ11-29 as used in Example 7 was used. The autodigestion was examined by causing the reaction in the same manner, except that the substrate was not added."}, "[1]": {"assay": "Autodigestion of the catalytic peptide (HPLC, MS)", "assay_type": "biochemical", "protocol": "First, to a buffer solution (Tris-HCl, pH 6.5, final concentration: 100 mmol/l), JAL (final concentration: 0.2 mmol/l) and the fragment peptide of hMMP7 (final concentration 0.05 mmol/l) were added. […] Thereafter, the reaction solution was subjected to HPLC, and the peaks of JAL and the fragment peptide of hMMP7 were examined. HPLC was performed under the following conditions.\nNext, the mechanism of autodigestion was examined using various mutants of JAL as hydrolytic peptides. To a reaction solution containing each of the mutants of JAL, a protease inhibitor (trade name: Roche cOmplete, Roche) was added to cause a reaction. One tablet of the protease inhibitor was dissolved in 1 ml of Milli-Q water, and then, 50 μl of the resultant mixture was added to the reaction solution. […] As a result, the autodigestion of all the peptides subjected to the measurement was inhibited (FIG. 16).\nAutodigestion in Box B was examined.\nJAL-TA9 was reacted in the same manner except that a substrate was not added to examine the autodigestion of JAL-TA9.\nThe influence of an inhibitor on autodigestion of JAL-TA9 was examined. […] As the protease inhibitor, the serine protease inhibitor AEBSF, which inhibited the autodigestion of JAL 12-22 C19M in the item (6) in Example 4, was used."}, "Aβ1-20": {"molecular_target": "Aβ1-20 (Homo sapiens, UniProt P05067)", "sequence (P05067 672-691 limits assumed)": "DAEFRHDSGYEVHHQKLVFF", "assay": "Hydrolysis activity against Aβ1-20", "method": "as §1, §2, §3, §4"}, "[2]": {"details": "Example 5 (1), JAL 14-18 and mutants"}, "[3]": {"details": "reaction solution VI, reaction for 1 day"}, "[4]": {"details": "reaction solution VI, reaction for 5 days"}},
  "data": [
    {"substance": "APEKPYKGSGFRMIHA", "values": [
      {"measurement": "hydrolysis activity against Aβ11-29", "setting": "Aβ11-29; Example 3 (6)", "result": "exhibited activity"}
    ]},
    {"substance": "WVDPYEVSYRIGE [Box B BTG1 8-20]", "values": [
      {"measurement": "autodigestion", "setting": "[1]; Example 6, HSA added, 5 days", "result": "fragments suggesting the occurrence of autodigestion were observed"},
      {"measurement": "hydrolysis activity against Aβ11-29", "setting": "Aβ11-29; Example 6 (3)", "result": "exhibited activity"}
    ]},
    {"substance": "DSGFR", "values": [
      {"measurement": "hydrolysis activity against Aβ1-20", "setting": "Aβ1-20; [2]", "result": "strong activity"}
    ]},
    {"substance": "YKGSGFRMI [JAL 12-20 C19M]", "values": [
      {"measurement": "autodigestion in presence of protease inhibitor", "setting": "[1]; AEBSF, with Aβ11-29, 1 day", "result": "inhibited by AEBSF"},
      {"measurement": "hydrolysis activity against Aβ11-29", "setting": "Aβ11-29; Example 3 (6)", "result": "exhibited activity"},
      {"measurement": "hydrolysis activity against Aβ11-29", "setting": "Aβ11-29; Example 4 (5)", "result": "strong activity"}
    ]},
    {"substance": "YRMI [ANA-SA4]", "values": [
      {"measurement": "cleavage of Aβ1-20", "setting": "Aβ1-20; reaction solution V, 37° C.", "result": "degraded Aβ1-20"},
      {"measurement": "Aβ1-20 peak remaining", "setting": "Aβ1-20; [3]", "result": 49.6, "unit": "%"},
      {"measurement": "Aβ1-20 peak", "setting": "Aβ1-20; [4]", "result": "almost disappeared"},
      {"measurement": "autodigestion", "setting": "[1]; reaction solution V, 37° C.", "result": "digested itself"},
      {"measurement": "cleavage of Aβ11-29", "setting": "Aβ11-29; reaction solution V, 37° C.", "result": "degraded Aβ11-29"},
      {"measurement": "Aβ11-29 peak remaining", "setting": "Aβ11-29; [3]", "result": 72, "unit": "%"},
      {"measurement": "Aβ11-29 peak", "setting": "Aβ11-29; [4]", "result": "almost disappeared"}
    ]},
    {"substance": "SKGQA [ANA-SA5]", "values": [
      {"measurement": "types of fragments of Aβ1-20 detected", "setting": "Aβ1-20; reaction for 5 days", "result": 12},
      {"measurement": "types of fragments of Aβ11-29 detected", "setting": "Aβ11-29; reaction for 5 days", "result": 13}
    ]},
    {"substance": "EKPYKGSGFRMI", "values": [
      {"measurement": "hydrolysis activity against Aβ11-29", "setting": "Aβ11-29; Example 3 (6)", "result": "exhibited activity"}
    ]},
    {"substance": "GSGFR", "values": [
      {"measurement": "hydrolysis activity against Aβ1-20", "setting": "Aβ1-20; Example 3 (2), (6)", "result": "exhibited activity"},
      {"measurement": "hydrolysis activity against Aβ1-20", "setting": "Aβ1-20; [2]", "result": "strong activity"}
    ]},
    {"substance": "AISSSMHSLYGLGLGS [Tob1 221-236]", "values": [
      {"measurement": "autodigestion", "setting": "[1]; Example 6, HSA added, 5 days", "result": "fragments suggesting autodigestion of Tob1 221-236 were observed"},
      {"measurement": "hydrolysis activity against Aβ11-29", "setting": "Aβ11-29; Example 6 (3)", "result": "exhibited activity"}
    ]},
    {"substance": "YKGSGFRMIHA", "values": [
      {"measurement": "hydrolysis activity against Aβ11-29", "setting": "Aβ11-29; Example 3 (6)", "result": "exhibited activity"}
    ]},
    {"substance": "YKGAGFR", "values": [
      {"measurement": "hydrolysis activity against Aβ1-20", "setting": "Aβ1-20; Example 3 (2), (6)", "result": "exhibited activity"}
    ]},
    {"substance": "GSGYR", "values": [
      {"measurement": "hydrolysis activity against Aβ1-20", "setting": "Aβ1-20; [2]", "result": "strong activity"}
    ]},
    {"substance": "AKGSGFRMI", "values": [
      {"measurement": "hydrolysis activity against Aβ11-29", "setting": "Aβ11-29; Example 3 (6)", "result": "exhibited activity"}
    ]},
    {"substance": "YKGSGF [JAL 12-17]", "values": [
      {"measurement": "autodigestion", "setting": "[1]; Example 15, substrate not added", "result": "digested themselves"},
      {"measurement": "degradation of Aβ-F (Aβ11-29)", "setting": "Aβ11-29; Example 15, peptide 0.2 mmol/l, PBS, HSA", "result": "degraded Aβ-F"}
    ]},
    {"substance": "GSGVR", "values": [
      {"measurement": "hydrolysis activity against Aβ1-20", "setting": "Aβ1-20; [2]", "result": "strong activity"}
    ]}
  ]
}
